PMC8142856 (Cell, 2021)

B1: nsp9-nsp10 fusion protein (other)
chain: NNELSPVALRQMSCAAGTTQTACTDDNALAYYNTTKGGRFVLALLSDLQDLKWARFPKSDGTGTIYTELEPPCRFVTDTPKGPKVKYLYFIKGLNNLNRGMVLGSLAATVRLQAGNATEVPANSTVLSFCAFAVDAAKAYKDYLASGGQPITNCVKMLCTHTGTGQAITVTPEANMDQESFGGASCCLYCRCHIDHPNPKGFCDLKGKYVQIPTTCANDPVGFTLKNTVCTVCGMWKGYGCSCDQLREPMLQ
B2: SARS-CoV-2 nsp14 (enzyme)
chain: AENVTGLFKDCSKVITGLHPTQAPTHLSVDTKFKTEGLCVDIPGIPKDMTYRRLISMMGFKMNYQVNGYPNMFITREEAIRHVRAWIGFDVEGCHATREAVGTNLPLQLGFSTGVNLVAVPTGYVDTPNNTDFSRVSAKPPPGDQFKHLIPLMYKGLPWNVVRIKIVQMLSDTLKNLSDRVVFVLWAHGFELTSMKYFVKIGPERTCCLCDRRATCFSTASDTYACWHHSIGFDYVYNPFMIDVQQWGFTGNLQSNHDLYCQVHGNAHVASCDAIMTRCLAVHECFVKRVDWTIEYPIIGDELKINAACRKVQHMVVKAALLADKFPVLHDIGNPKAIKCVPQADVEWKFYDAQPCSDKAYKIEELFYSYATHSDKFTDGVCLFWNCNVDRYPANSIVCRFDTRVLSNLNLPGCDGGSLYVNKHAFHTPAFDKSAFVNLKQLPFFYYSDSPCESHGKQVVSDIDYVPLKSATCITRCNLGGAVCRHHANEYRLYLDAYNMMISAGFSLWVYKQFDTYNLWNTFTRLQ
B3: template-primer RNA (dsRNA)
RNA 1: CAUGCCAUGGCCUCUAAAAUGUCAGCUGCUCCCUAGCAUGCUACUACCGCGUAGCAUG
RNA 2: GCGGUAGUAGCAUGCUAGGGAGCAG

Legend:
SARS-CoV-2 nsp12 = SARS-CoV-2 nsp12 (SARS-CoV-2, UniProt P0DTD1); experiment: cryo-EM structure
SARS-CoV-2 nsp14 = biological target: B2; experiment: SEC
SARS-CoV-2 nsp13 = SARS-CoV-2 nsp13 (SARS-CoV-2, UniProt P0DTD1 5325-5925); experiment: cryo-EM structure
nsp12 (RdRp with …) = biological target: nsp12 (RdRp with NiRAN);nsp7;nsp8;nsp9;nsp13 helicase;nsp10;nsp14 (ExoN / N7-MTase) (SARS-CoV-2;SARS-CoV-2;SARS-CoV-2;SARS-Co …, UniProt P0DTD1;P0DTD1;P0DTD1;P0DTD1;P0DTD1;P0DTD1;P0DTD1 …, ||||||); experiment: cryo-EM structure

Row | Binder | binding result (SARS-CoV-2 nsp12) | binding result (SARS-CoV-2 nsp14) | binding result (SARS-CoV-2 nsp13) | binding result (nsp12 (RdRp with …))
1 | B1 | binds | binds |  | 
2 | B2 | binds |  | binds | 
3 | B3 |  |  |  | binds
